Experimental data reported in patent US20090191187A1 (published 2009).

T1: human interleukin-1 receptor on cells (MRC-5 human embryonic lung fibroblasts; human blood cells) (human, UniProt P14778 18-569)
T1 sequence (looked up): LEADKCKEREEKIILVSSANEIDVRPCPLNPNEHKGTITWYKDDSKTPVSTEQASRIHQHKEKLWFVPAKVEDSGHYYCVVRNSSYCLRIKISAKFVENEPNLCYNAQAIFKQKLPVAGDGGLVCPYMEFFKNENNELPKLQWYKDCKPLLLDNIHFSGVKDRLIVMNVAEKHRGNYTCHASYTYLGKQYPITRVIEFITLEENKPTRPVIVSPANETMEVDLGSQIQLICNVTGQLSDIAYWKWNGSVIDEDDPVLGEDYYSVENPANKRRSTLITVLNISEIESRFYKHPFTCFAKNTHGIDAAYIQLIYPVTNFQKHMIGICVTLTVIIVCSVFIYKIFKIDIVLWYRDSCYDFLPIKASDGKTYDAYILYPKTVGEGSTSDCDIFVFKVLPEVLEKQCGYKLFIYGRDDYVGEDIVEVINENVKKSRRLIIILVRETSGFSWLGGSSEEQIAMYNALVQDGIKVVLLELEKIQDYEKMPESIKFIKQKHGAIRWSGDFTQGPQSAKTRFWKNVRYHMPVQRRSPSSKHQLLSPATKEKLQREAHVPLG

T2: recombinant soluble human type 1 IL-1 receptor (extracellular domain, glycosylated) (human, UniProt P14778 21-333, N-glycosylated (from SF9 insect cells); biotinylated in the ELISA of Examples 2 and 4c)
T2 construct: also called hIL-1R; rshIL-1R
T2 sequence: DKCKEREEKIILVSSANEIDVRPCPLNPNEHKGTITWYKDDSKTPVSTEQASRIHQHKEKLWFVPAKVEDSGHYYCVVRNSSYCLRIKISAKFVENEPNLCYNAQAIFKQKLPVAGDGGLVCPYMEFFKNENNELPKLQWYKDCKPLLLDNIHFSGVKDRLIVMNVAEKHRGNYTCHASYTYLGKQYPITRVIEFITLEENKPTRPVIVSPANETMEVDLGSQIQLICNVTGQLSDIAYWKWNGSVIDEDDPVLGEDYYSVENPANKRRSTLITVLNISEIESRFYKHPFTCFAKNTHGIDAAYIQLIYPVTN


Columns and labels:
[1] = target: T1, human interleukin-1 receptor on cells …; assay: cell-based or functional assay
[2] = target: T2, recombinant soluble human type 1 IL-1 …; assay: ELISA on biotinylated human IL-1R on streptavidin plates
Method: The relative immunactivity of the antibodies as compared to 2D8 antibody was determined by ELISA. A soluble biotinylated human IL-1R was coated at room temperature for one hour to 96-well-plates (precoated with streptavidin). After blocking with BSA the antibody was diluted and added to the wells and incubated at room temperature for two hours. The plates were washed three times and incubated with horse-radish-peroxidase (POD)-conjugated rabbit-anti-rat-IgG at room temperature for one hour. After further washing the amount of bound antibody was determined by addition of TM-Blue® ([…]) and measurement of the absorbance at 370 nm.

Row | Binder | Bioassay (IC50 in relation to 2D8), 1st experiment [1] | Bioassay (IC50 in relation to 2D8), 2nd experiment [1] | Bioassay (IC50 in relation to 2D8), Mean [1] | ELISA (absorbance at 370 nm in relation to 2D8), 1st experiment [2] | ELISA (absorbance at 370 nm in relation to 2D8), 2nd experiment [2] | ELISA (absorbance at 370 nm in relation to 2D8), mean [2]
1 | DEI5/4 (antibody, V domains shown) VH: QLQLQESGPGLVKPSQTLSLTCTVSGLSLTSNSITWIRQPPGKGPEWMGMIWSNGDTDYSTSLKSRLTISKDTSKSQVVLTMTNMDPVDTATYYCARYNYYFDYWGQGTLVTVSS VL: DIVLTQSPATLSLSPGERATLSCKASQNVDNRGVSYVHWYQQKPGQAPKLLIYKGSNLAFGVPARFSGSGSGTDFTLTISSLQPEDFATYYCQQSKGHPDTFGAGTKLELK | 3.1 relative to 2D8 | 1.9 relative to 2D8 | 2.5 relative to 2D8 |  |  | 
2 | DEI4/7 (antibody, V domains shown) VH: QLQLQESGPGLVKPSQTLSLTCTVSGLSLTSNSITWIRQPPGKGPEWMGMIWSNGDTDYNSAFTSRFTISRDNSKNTLYLQMNSLKTEDTAVYYCARYNYYFDYWGQGTLVTVSS VL: DIVLTQSPATLSLSPGERATLSCKASQNVDNRGVSYVHWYQQKPGQAPKLLIYKGSNLAFGVPARFSGSGSGTDFTLTISSLQPEDFATYFCQQSKGHPDTFGAGTKLELK | 3.4 relative to 2D8 | 3.5 relative to 2D8 | 3.5 relative to 2D8 |  |  | 
3 | HUM2/2 (antibody, V domains shown, Humanized variant of 2D8) VH: QVQLQESGPGLVKPSETLSLTCTVSELSLTSNSITWIRQPPGKGLEWIGMIWSNGDTDYNSAFTSRVTISRDTSKNQFSLKLSSVTAADTAVYYCARYNYYFDYWGQGTLVTVSS VL: EIVLTQSPATLSLSPGERATLSCKASQNVDNRGVSYVHWYQQKPGQAPRLLIYKGSNLAFGVPARFSGSGSRTDFTLTISSLEPEDFATYYCQQSKGHPDTFGQGTKVEIK | 0.9 relative to 2D8 | 1 relative to 2D8 | 1 relative to 2D8 | 1.3 relative to 2D8 | 1.6 relative to 2D8 | 1.4 relative to 2D8
4 | DEI4/9 (antibody, V domains shown) VH: QLQLQESGPGLVKPSQTLSLTCTVSGLSLTSNSITWIRQPPGKGPEWMGMIWSNGDTDYNSAFTSRFTISRDNSKNTLYLQMNSLKTEDTAVYYCARYNYYFDYWGQGTLVTVSS VL: DIVLTQSPATLSLSPGERATLSCKASQNVDNRGVSYVHWYQQKPGQAPKLLIYKGSNLAFGVPSRFSGSGSGTDFTLTISSLQPEDFATYYCQQSKGHPDTFGAGTKLELK | 5.2 relative to 2D8 | 4.1 relative to 2D8 | 4.7 relative to 2D8 |  |  | 
5 | DEI2/9 (antibody, V domains shown, also called combination of HURDIVHv2 and HURDIVKv9) VH: QLQLQESGPGLVKPSQTLSLTCTVSGLSLTSNSITWVRQAPGQGLEWMGMIWSNGDTDYSTSLKSRLTISKDTSKSQVVLTMTNMDPVDTATYYCARYNYYFDYWGQGTLVTVSS VL: DIVLTQSPATLSLSPGERATLSCKASQNVDNRGVSYVHWYQQKPGQAPKLLIYKGSNLAFGVPSRFSGSGSGTDFTLTISSLQPEDFATYYCQQSKGHPDTFGAGTKLELK | 2.7 relative to 2D8 | 2.8 relative to 2D8 | 2.8 relative to 2D8 | 1.4 relative to 2D8 | 1.8 relative to 2D8 | 1.6 relative to 2D8
6 | DEI2/4 (antibody, V domains shown, also called combination of HURDIVHv2 and HURDIVKv4) VH: QLQLQESGPGLVKPSQTLSLTCTVSGLSLTSNSITWVRQAPGQGLEWMGMIWSNGDTDYSTSLKSRLTISKDTSKSQVVLTMTNMDPVDTATYYCARYNYYFDYWGQGTLVTVSS VL: DIVLTQSPATLSLSPGERATLSCKASQNVDNRGVSYVHWYQQKPGQAPKLLIYKGSNLAFGVPARFSGSGSGTDFTLTISSLQPEDFATYYCQQSKGHPDTFGAGTKLELK | 2.5 relative to 2D8 | 2 relative to 2D8 | 2.3 relative to 2D8 | 1.5 relative to 2D8 | 1.8 relative to 2D8 | 1.7 relative to 2D8
7 | DEI4/5 (antibody, V domains shown, also called combination of HURDIVHv4 and HURDIVKv5) VH: QLQLQESGPGLVKPSQTLSLTCTVSGLSLTSNSITWIRQPPGKGPEWMGMIWSNGDTDYNSAFTSRFTISRDNSKNTLYLQMNSLKTEDTAVYYCARYNYYFDYWGQGTLVTVSS VL: DIVLTQSPATLSLSPGERATISCKASQNVDNRGVSYVHWYQQKPGQAPKLLIYKGSNLAFGVPARFSGSGSGTDFTLTISSLQPEDFATYYCQQSKGHPDTFGAGTKLELK | 1.5 relative to 2D8 | 4.5 relative to 2D8 | 3 relative to 2D8 | 3 relative to 2D8 | 2.2 relative to 2D8 | 2.6 relative to 2D8

Further lines, results first:

Row | Bioassay (IC50 in relation to 2D8), 1st experiment [1] | Bioassay (IC50 in relation to 2D8), 2nd experiment [1] | Bioassay (IC50 in relation to 2D8), Mean [1] | ELISA (absorbance at 370 nm in relation to 2D8), 1st experiment [2] | ELISA (absorbance at 370 nm in relation to 2D8), 2nd experiment [2] | ELISA (absorbance at 370 nm in relation to 2D8), mean [2] | Binder
8 | 1.6 relative to 2D8 | 2.8 relative to 2D8 | 2.2 relative to 2D8 |  |  |  | DEI5/9 (antibody, V domains shown) VH: QLQLQESGPGLVKPSQTLSLTCTVSGLSLTSNSITWIRQPPGKGPEWMGMIWSNGDTDYSTSLKSRLTISKDTSKSQVVLTMTNMDPVDTATYYCARYNYYFDYWGQGTLVTVSS VL: DIVLTQSPATLSLSPGERATLSCKASQNVDNRGVSYVHWYQQKPGQAPKLLIYKGSNLAFGVPSRFSGSGSGTDFTLTISSLQPEDFATYYCQQSKGHPDTFGAGTKLELK
9 | 3.2 relative to 2D8 | 0.7 relative to 2D8 | 2 relative to 2D8 | 2.1 relative to 2D8 | 2.2 relative to 2D8 | 2.2 relative to 2D8 | DEI1/8 (antibody, V domains shown) VH: QLQLQESGPGLVKPSQTLSLTCTVSGLSLTSNSITWVRQAPGQGLEWMGMIWSNGDTDYNSAFTSRFTISRDNSKNTLYLQMNSLKTEDTAVYYCARYNYYFDYWGQGTLVTVSS VL: DIVLTQSPATLSLSPGERATLSCKASQNVDNRGVSYVHWYQQKPGQAPKLLIYKGSNLAFGVPSRFSGSGSGTDFTLTISSLQPEDFATYFCQQSKGHPDTFGAGTKLELK
10 | 5.2 relative to 2D8 | 3.9 relative to 2D8 | 4.6 relative to 2D8 | 3.1 relative to 2D8 | 3.4 relative to 2D8 | 3.3 relative to 2D8 | DEI5/5 (antibody, V domains shown, also called combination of HURDIVHv5 and HURDIVKv5) VH: QLQLQESGPGLVKPSQTLSLTCTVSGLSLTSNSITWIRQPPGKGPEWMGMIWSNGDTDYSTSLKSRLTISKDTSKSQVVLTMTNMDPVDTATYYCARYNYYFDYWGQGTLVTVSS VL: DIVLTQSPATLSLSPGERATISCKASQNVDNRGVSYVHWYQQKPGQAPKLLIYKGSNLAFGVPARFSGSGSGTDFTLTISSLQPEDFATYYCQQSKGHPDTFGAGTKLELK
11 | 3.4 relative to 2D8 | 1.2 relative to 2D8 | 2.3 relative to 2D8 |  |  |  | DEI5/7 (antibody, V domains shown) VH: QLQLQESGPGLVKPSQTLSLTCTVSGLSLTSNSITWIRQPPGKGPEWMGMIWSNGDTDYSTSLKSRLTISKDTSKSQVVLTMTNMDPVDTATYYCARYNYYFDYWGQGTLVTVSS VL: DIVLTQSPATLSLSPGERATLSCKASQNVDNRGVSYVHWYQQKPGQAPKLLIYKGSNLAFGVPARFSGSGSGTDFTLTISSLQPEDFATYFCQQSKGHPDTFGAGTKLELK
12 | 3.3 relative to 2D8 | 1.4 relative to 2D8 | 2.4 relative to 2D8 | 1.5 relative to 2D8 | 2.6 relative to 2D8 | 2.1 relative to 2D8 | DEI2/8 (antibody, V domains shown, also called combination of HURDIVHv2 and HURDIVKv8) VH: QLQLQESGPGLVKPSQTLSLTCTVSGLSLTSNSITWVRQAPGQGLEWMGMIWSNGDTDYSTSLKSRLTISKDTSKSQVVLTMTNMDPVDTATYYCARYNYYFDYWGQGTLVTVSS VL: DIVLTQSPATLSLSPGERATLSCKASQNVDNRGVSYVHWYQQKPGQAPKLLIYKGSNLAFGVPSRFSGSGSGTDFTLTISSLQPEDFATYFCQQSKGHPDTFGAGTKLELK
